Assay results taken from patent publication US6362326B1, “11 cby genomic sequence” (SmithKline Beecham Corporation, priority 1998, dated 2002).

Biological target: 11cby polypeptide of SEQ ID NO: 2 (Homo sapiens, UniProt Q99705)
Test: binding of 11cby polypeptide to melanin-concentrating hormone
Conditions: qualitative statement, method or value not given

Sequence of 11cby polypeptide of SEQ ID NO: 2 (Q99705 whole entry): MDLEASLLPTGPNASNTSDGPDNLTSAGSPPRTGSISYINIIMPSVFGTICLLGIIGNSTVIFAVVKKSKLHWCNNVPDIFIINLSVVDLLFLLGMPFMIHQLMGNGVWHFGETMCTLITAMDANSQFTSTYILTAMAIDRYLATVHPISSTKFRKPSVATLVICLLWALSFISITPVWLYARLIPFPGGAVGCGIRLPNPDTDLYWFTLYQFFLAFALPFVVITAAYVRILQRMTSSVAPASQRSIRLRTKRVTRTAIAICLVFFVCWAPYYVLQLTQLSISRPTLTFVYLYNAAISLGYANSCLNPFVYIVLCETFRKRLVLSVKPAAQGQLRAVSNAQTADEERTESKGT

binding to 11cby polypeptide (7-transmembrane receptor): bind
Substance: H-Asp-Phe-Asp-Met-Leu-Arg-Cys-Met-Leu-Gly-Arg-Val-Tyr-Arg-Pro-Cys-Trp-Gln-Val-OH [MCH]
